Measured values taken from patent US11649285B2.

Legend:
[1] = molecular target: human VISTA, native (on anti-CD3-activated human T cells and PBMCs) (human (homo sapiens))
[2] = molecular target: human VISTA, native (on anti-CD3-activated human T cells and PBMCs) (human (homo sapiens)); remark: listed apart in the source

- ED50 of inhibition of MIP-1 alpha secretion, anti-CD3-activated human PBMCs (Quantikine ELISA) [1]: 0.5 mg/L
- ED50 of inhibition of Rantes secretion, anti-CD3-activated human PBMCs (Quantikine ELISA) [1]: 0.5 mg/L
- concentration at which inhibition of CXCL11 secretion occurred, anti-CD3-activated human PBMCs (Quantikine ELISA) [1]: 2 µg/mL
- concentration at which inhibition of IL-17 secretion occurred, anti-CD3-activated human PBMCs (Quantikine ELISA) [1]: 10 µg/mL
- division of CFSE-labeled human CD3+ T cells with plate-bound anti-CD3 and rhVSIG-3 10 µg/mL, flow cytometry (% CD3+ T cells dividing (72 hours)) [2]: < 25
B1: Recombinant human VSIG3 Fc Chimera (Fc fusion)
chain: LEVSESPGSIQVARGQTAVLPCTFTTSAALINLNVIWMVTPLSNANQPEQVILYQGGQMFDGAPRFHGRVGFTGTMPATNVSIFINNTQLSDTGTYQCLVNNLPDIGGRNIGVTGLTVLVPPSAPHCQIQGSQDIGSDVILLCSSEEGIPRPTYLWEKLDNTLKLPPTATQDQVQGTVTIRNISALSSGLYQCVASNAIGTSTCLLDLQVISPQPRNIGLIAG
